Laboratory results as given in US20240132615A1 (ICHNOS SCIENCES, published 2024).

T1: human BCMA on multiple myeloma cells (human, UniProt Q02223 1-184)
T1 construct: whole, on cells; Here the protein is the cell lines' own; also called B-cell maturation antigen; TNFRSF17
T1 sequence (looked up): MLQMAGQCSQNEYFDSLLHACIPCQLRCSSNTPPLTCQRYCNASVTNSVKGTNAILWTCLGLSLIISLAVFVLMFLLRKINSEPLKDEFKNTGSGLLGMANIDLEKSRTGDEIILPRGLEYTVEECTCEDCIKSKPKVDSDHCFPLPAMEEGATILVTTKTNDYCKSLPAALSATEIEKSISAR

B1: Anti-CD38-UCP03-B3 FAB (Fab, V domains shown)
VH: QVQLVQSGAEVKKPGSSVKVSCKASGGDFTLYSISWVRQAPGQGLEWMGRIIPTGANANYAQKFQGRVTITADESTSTAYMELSSLRSEDTAVYYCARSWPSLGSGWFDIWGQGTLVTVSS
VL: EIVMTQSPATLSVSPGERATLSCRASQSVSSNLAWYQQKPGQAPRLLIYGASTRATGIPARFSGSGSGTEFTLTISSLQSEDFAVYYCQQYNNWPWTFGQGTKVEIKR
notes: Fab; also called anti-CD38-B3; anti-CD38-B3 Fab
B2: teclistamab (bispecific antibody)
chain 1: not shown
chain 2: SYVLTQPPSVSVAPGQTARITCGGNNIGSKSVHWYQQPPGQAPVVVVYDDSDRPSGIPERFSGSNSGNTATLTISRVEAGDEAVYYCQVWDSSSDHVVFGGGTKLTVLGQPKAAPSVTLFPPSSEELQANKATLVCLISDFYPGAVTVAWKGDSSPVKAGVETTTPSKQSNNKYAASSYLSLTPEQWKSHRSYSCQVTHEGSTVEKTVAPTECS
chain 3: EVQLVESGGGLVQPGGSLRLSCAASGFTFNTYAMNWVRQAPGKGLEWVARIRSKYNNYATYYAASVKGRFTISRDDSKNSLYLQMNSLKTEDTAVYYCARHGNFGNSYVSWFAYWGQGTLVTVSSASTKGPSVFPLAPCSRSTSESTAALGCLVKDYFPEPVTVSWNSGALTSGVHTFPAVLQSSGLYSLSSVVTVPSSSLGTKTYTCNVDHKPSNTKVDKRVESKYGPPCPPCPAPEAAGGPSVFLFPPKPKDTLMISRTPEVTCVVVDVSQEDPEVQFNWYVDGVEVHNAKTKPREEQFNSTYRVVSVLTVLHQDWLNGKEYKCKVSNKGLPSSIEKTISKAKGQPREPQVYTLPPSQEEMTKNQVSLTCLVKGFYPSDIAVEWESNGQPENNYKTTPPVLDSDGSFLLYSKLTVDKSRWQEGNVFSCSVMHEALHNHYTQKSLSLSLGK
chain 4: QTVVTQEPSLTVSPGGTVTLTCRSSTGAVTTSNYANWVQQKPGQAPRGLIGGTNKRAPGTPARFSGSLLGGKAALTLSGVQPEDEAEYYCALWYSNLWVFGGGTKLTVLGQPKAAPSVTLFPPSSEELQANKATLVCLISDFYPGAVTVAWKADSSPVKAGVETTTPSKQSNNKYAASSYLSLTPEQWKSHRSYSCQVTHEGSTVEKTVAPTECS

Assays:
[1] = target: T2, recombinant human CD38 antigen for crystallography (hsCD38 ECD) (human, UniProt P28907 45-300); experiment: X-ray crystal structure of the complex, 3.4 Å
T2 construct: also called ectodomain of hsCD38
Method: The Fab/hsCD38 complex was concentrated to ˜11 mg/mL. […] Drops consisting of 1 μL protein+1 μL precipitant were set up at 20° C., and crystals appeared within 3-7 days. The resulting crystals were cryoprotected by soaking in well solution supplemented with 35% ethylene glycol, then flash cooled and stored in liquid nitrogen until data collection. Diffraction data were collected at the Swiss Light Source (SLS). […] The structure was determined by molecular replacement with Phaser.

[2] = target: T3, recombinant cynomolgus monkey CD38-ECD-C-his protein (cynomolgus monkey, UniProt Q5VAN0 45-301); experiment: SPR, Fab as analyte, captured cynomolgus CD38-his
T3 construct: made in house; Q5VAN0 residues 43-301 (residue 44 deleted) with C-terminal 6-His; also called cynomolgus monkey CD38-C-His; recombinant cynomolgus monkey CD38 protein
Method: (§1) Surface plasmon resonance (SPR) was used to measure the binding affinities of the Fab fragments for human and cynomolgus monkey CD38. Affinities were measured on a Biacore T200 instrument (Cytiva Life Sciences) at 25° C. and analyzed with the Biacore T200 Evaluation Software (v3.1).
(§2) The affinities to human and cynomolgus monkey CD38 were assessed by immobilizing CD38 and using Fab fragments as analyte. […] Fab fragments were injected in single cycle kinetic at different concentrations ranging from 7.8 to 2000 nM, in HBS-EP+ buffer (Cytiva Life Sciences, catalog NO: BR100669) at a flow rate of 30 μl/min for 3 min on flow-path 1 and 2 (flow-path 1 being used as reference). Dissociation was monitored for 5 min. […] Experimental data were processed using the 1:1 Langmuir kinetic fitting model.

[3] = target: T4, Biotinylated Human CD38 Protein, Avitag, His Tag (Acrobiosystems CD8-H82E7) (human, UniProt P28907 43-300, biotinylated); experiment: SPR, Fab as analyte, immobilised biotinylated human CD38;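 also: biacore T200 at 25 °C, single-cycle kinetics with Fab from 7.8 to 2000 nM, 3 min association then 5 min dissociation, fitted with a 1:1 Langmuir model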
T4 construct: bought protein; also called biotinylated recombinant human CD38 protein; human CD38-avi-his
Method: as §1, §2

[4] = target: T1, human BCMA on multiple myeloma cells; experiment: flow cytometry on MOLP-8 cells; one-site binding fit
[5] = target: T1, human BCMA on multiple myeloma cells; experiment: flow cytometry on KMS-12-BM cells; one-site binding fit
Method: (§3) The plates were centrifuged at 350 g for 3 min at 4° C. and cells washed twice with DPBS.
(§4) Cells were resuspended in 25 μl of LIVE/DEAD Fixable Near-IR Dead Cell Stain (ThermoFisher Scientific, L34976) diluted at 1/1′000 in DPBS and incubated 20 min at 4° C. […] Cells were then washed twice and resuspended in 25 μl of FACS buffer with azide. Samples were acquired on an iQue Screener Plus instrument (IntelliCyt). Cells were gated based on size on FSC vs SSC and debris, doublets and dead cells were excluded. Population was analyzed for APC-geometric mean (geomean) fluorescence intensity (MFI) using iQue Forecyt® software. Only samples showing at least 2′000 cells in final gate were considered in the further steps of the analysis. Relative geometric mean fluorescence intensity (RFI) was calculated by subtracting the MFI of the negative control from the MFI of the sample at each dilution. RFI values were finally plotted using Prism software (GraphPad). Equilibrium dissociation constant values (KD) and maximum binding were determined by using one-site binding curve fitting on non-transformed data (Prism).

[6] = target: T1, human BCMA on multiple myeloma cells; experiment: flow cytometry on NCI-H929 WT cells; one-site binding fit
Method: as §3, §4

[7] = target: T1, human BCMA on multiple myeloma cells; experiment: flow cytometry on NCI-H929 CD38 KO cells; one-site binding fit
Method: as §3, §4

[8] = target: T1, human BCMA on multiple myeloma cells; experiment: flow cytometry on KMS-12-BM cells (BCMA+CD38+), anti-human IgG secondary, RFI
Method: as §3, §4

[9] = target: T1, human BCMA on multiple myeloma cells; experiment: flow cytometry on NCI-H929 cells (BCMA++CD38++), anti-human IgG secondary, RFI
Method: as §3, §4

[10] = target: T5, human CD3 on primary human T cells (human, UniProt P07766 23-207; P04234 22-171; P09693 23-182; P20963 22-164); experiment: flow cytometry on isolated human primary T cells gated CD38-negative; one-site binding fit
T5 construct: whole, on cells; Endogenous CD3 complex on isolated human T cells, gated CD38-negative; also called CD3-expressing T cells; human CD38 negative T cells
Method: Cells were thawed in pre-warmed complete RPMI medium (RPMI supplemented with 10% heat inactivated fetal calf serum, 1% L-Glutamine, 1% Non-essential Amino Acids, 1% Sodium Pyruvate, and 1% Penicillin/Streptomycin) and rested overnight at 1.5×10⁶ cells/ml. Cells were plated at 1×10⁵ cells/well in 96-well round-bottom plates. The plates were centrifuged at 350 g for 3 min at 4° C. and cells washed twice with DPBS. Cells were resuspended in 25 μl of LIVE/DEAD Fixable Near-IR Dead Cell Stain (ThermoFisher Scientific, L34976) diluted at 1/1′000 in DPBS and incubated 20 min at 4° C. […] Cells were then washed twice and resuspended in 25 μl of FACS buffer with azide. Samples were acquired on an iQue Screener Plus instrument (IntelliCyt). Cells were gated based on size on FSC vs SSC and debris, doublets and dead cells were excluded. Finally, viable cells were gated on CD38-T cells. The population was analyzed for PE-geometric mean (geomean) fluorescence intensity (MFI) using iQue Forecyt© software. Only samples showing at least 2′000 cells in final gate were considered in the further steps of the analysis. Relative geometric mean fluorescence intensity (RFI) was calculated per donor by subtracting the mean of MFI of the negative control from the MFI of the sample at each dilution. RFI values were finally plotted using Prism software (GraphPad). Equilibrium dissociation constant values (KD) and maximum binding were determined by using one-site binding curve fitting on non-transformed data (Prism). […] Two independent experiments were performed.

[11] = target: T1, human BCMA on multiple myeloma cells; experiment: flow cytometry on NCI-H929 CD38 KO cells (BCMA++CD38-), anti-human IgG secondary, RFI
Method: as §3, §4

[12] = target: T5, human CD3 on primary human T cells; experiment: flow cytometry on isolated human T cells (CD38-negative gate), anti-human IgG secondary, relative fluorescence (RFI)

T5 sequence (P07766 23-207, chain 1 of 4): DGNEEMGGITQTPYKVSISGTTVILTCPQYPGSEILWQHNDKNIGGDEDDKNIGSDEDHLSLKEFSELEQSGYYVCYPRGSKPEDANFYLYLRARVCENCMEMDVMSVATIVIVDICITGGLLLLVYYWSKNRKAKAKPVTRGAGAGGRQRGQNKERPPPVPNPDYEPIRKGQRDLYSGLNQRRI
T5 sequence (P04234 22-171, chain 2 of 4): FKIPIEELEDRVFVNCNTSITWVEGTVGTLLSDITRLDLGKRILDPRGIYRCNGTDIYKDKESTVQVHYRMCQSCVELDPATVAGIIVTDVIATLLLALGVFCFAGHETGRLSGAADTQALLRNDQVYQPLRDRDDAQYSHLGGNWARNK
T5 sequence (P09693 23-182, chain 3 of 4): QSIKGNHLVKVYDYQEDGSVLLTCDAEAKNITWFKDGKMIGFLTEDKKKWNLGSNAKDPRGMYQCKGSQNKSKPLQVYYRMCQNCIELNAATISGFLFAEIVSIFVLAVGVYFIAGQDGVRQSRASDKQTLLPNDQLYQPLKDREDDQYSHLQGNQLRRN
T5 sequence (P20963 22-164, chain 4 of 4): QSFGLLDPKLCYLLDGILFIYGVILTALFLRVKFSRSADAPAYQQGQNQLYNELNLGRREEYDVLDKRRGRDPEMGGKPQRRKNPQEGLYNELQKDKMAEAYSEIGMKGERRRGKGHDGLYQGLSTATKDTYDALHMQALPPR

Row | Binder | binding result [1] | Kd [2] | Kd [3] | Kd [4] | Kd [5] | Kd [6] | Kd [7] | EC50 (read off the curve) [8] | EC50 (read off the curve) [9] | Kd [10] | EC50 (read off the curve) [11] | EC50 (read off the curve) [12]
1 | B1 | binds | 170 nM | 115 nM | – | – | – | – | – | – | – | – | –
2 | B2 | – | – | – | 95.8 nM | 21.8 nM | 30.4 nM | 46.3 nM | ~20 nM | ~30 nM | 18 nM | ~40 nM | ~20 nM
